We go through 5 molecules from patent US20040096899A1, “Immunoassay method for membrane-bound matrix metalloprotease” (priority 2000, published 2004).

B1: MMP-9: matrix metalloproteinase subjected to MT1-MMP sandwich EIA for cross reactivity (protein)
chain: APRQRQSTLVLFPGDLRTNLTDRQLAEEYLYRYGYTRVAEMRGESKSLGPALLLLQKQLSLPETGELDSATLKAMRTPRCGVPDLGRFQTFEGDLKWHHHNITYWIQNYSEDLPRAVIDDAFARAFALWSAVTPLTFTRVYSRDADIVIQFGVAEHGDGYPFDGKDGLLAHAFPPGPGIQGDAHFDDDELWSLGKGVVVPTRFGNADGAACHFPFIFEGRSYSACTTDGRSDGLPWCSTTANYDTDDRFGFCPSERLYTQDGNADGKPCQFPFIFQGQSYSACTTDGRSDGYRWCATTANYDRDKLFGFCPTRADSTVMGGNSAGELCVFPFTFLGKEYSTCTSEGRGDGRLWCATTSNFDSDKKWGFCPDQGYSLFLVAAHEFGHALGLDHSSVPEALMYPMYRFTEGPPLHKDDVNGIRHLYGPRPEPEPRPPTTTTPQPTAPPTVCPTGPPTVHPSERPTAGPTGPPSAGPTGPPTAGPSTATTVPLSPVDDACNVNIFDAIAEIGNQLYLFKDGKYWRFSEGRGSRPQGPFLIADKWPALPRKLDSVFEERLSKKLFFFSGRQVWVYTGASVLGPRRLDKLGLGADVAQVTGALRSGRGKMLLFSGRRLWRFDVKAQMVDPRSASEVDRMFPGVPLDTHDVFQYREKAYFCQDRFYWRVSSRSELNQVDQVGYVTYDILQCPED
B2: MMP-1: matrix metalloproteinase subjected to MT1-MMP sandwich EIA for cross reactivity (protein)
chain: FPATLETQEQDVDLVQKYLEKYYNLKNDGRQVEKRRNSGPVVEKLKQMQEFFGLKVTGKPDAETLKVMKQPRCGVPDVAQFVLTEGNPRWEQTHLTYRIENYTPDLPRADVDHAIEKAFQLWSNVTPLTFTKVSEGQADIMISFVRGDHRDNSPFDGPGGNLAHAFQPGPGIGGDAHFDEDERWTNNFREYNLHRVAAHELGHSLGLSHSTDIGALMYPSYTFSGDVQLAQDDIDGIQAIYGRSQNPVQPIGPQTPKACDSKLTFDAITTIRGEVMFFKDRFYMRTNPFYPEVELNFISVFWPQLPNGLEAAYEFADRDEVRFFKGNKYWAVQGQNVLHGYPKDIYSSFGFPRTVKHIDAALSEENTGKTYFFVANKYWRYDEYKRSMDPGYPKMIAHDFPGIGHKVDAVFMKDGFFYFFHGTRQYKFDPKTKRILTLQKANSWFNCRKN
B3: MMP-20: matrix metalloproteinase subjected to MT1-MMP sandwich EIA for cross reactivity (protein)
chain: APSLVAASPRTWRNNYRLAQAYLDKYYTNKEGHQIGEMVARGSNSMIRKIKELQAFFGLQVTGKLDQTTMNVIKKPRCGVPDVANYRLFPGEPKWKKNTLTYRISKYTPSMSSVEVDKAVEMALQAWSSAVPLSFVRINSGEADIMISFENGDHGDSYPFDGPRGTLAHAFAPGEGLGGDTHFDNAEKWTMGTNGFNLFTVAAHEFGHALGLAHSTDPSALMYPTYKYKNPYGFHLPKDDVKGIQALYGPRKVFLGKPTLPHAPHHKPSIPDLCDSSSSFDAVTMLGKELLLFKDRIFWRRQVHLRTGIRPSTITSSFPQLMSNVDAAYEVAERGTAYFFKGPHYWITRGFQMQGPPRTIYDFGFPRHVQQIDAAVYLREPQKTLFFVGDEYYSYDERKRKMEKDYPKNTEEEFSGVNGQIDAAVELNGYIYFFSGPKTYKYDTEKEDVVSVVKSSSWIGC
B4: MMP-19: matrix metalloproteinase subjected to MT1-MMP sandwich EIA for cross reactivity (protein)
chain: RVLGLAEVAPVDYLSQYGYLQKPLEGSNNFKPEDITEALRAFQEASELPVSGQLDDATRARMRQPRCGLEDPFNQKTLKYLLLGRWRKKHLTFRILNLPSTLPPHTARAALRQAFQDWSNVAPLTFQEVQAGAADIRLSFHGRQSSYCSNTFDGPGRVLAHADIPELGSVHFDEDEFWTEGTYRGVNLRIIAAHEVGHALGLGHSRYSQALMAPVYEGYRPHFKLHPDDVAGIQALYGKKSPVIRDEEEEETELPTVPPVPTEPSPMPDPCSSELDAMMLGPRGKTYAFKGDYVWTVSDSGPGPLFRVSALWEGLPGNLDAAVYSPRTQWIHFFKGDKVWRYINFKMSPGFPKKLNRVEPNLDAALYWPLNQKVFLFKGSGYWQWDELARTDFSSYPKPIKGLFTGVPNQPSAAMSWQDGRVYFFKGKVYWRLNQQLRVEKGYPRNISHNWMHCRPRTIDTTPSGGNTTPSGTGITLDTTLSATETTFEY
B5: MMP-2: matrix metalloproteinase subjected to MT1-MMP sandwich EIA for cross reactivity (protein)
chain: APSPIIKFPGDVAPKTDKELAVQYLNTFYGCPKESCNLFVLKDTLKKMQKFFGLPQTGDLDQNTIETMRKPRCGNPDVANYNFFPRKPKWDKNQITYRIIGYTPDLDPETVDDAFARAFQVWSDVTPLRFSRIHDGEADIMINFGRWEHGDGYPFDGKDGLLAHAFAPGTGVGGDSHFDDDELWTLGEGQVVRVKYGNADGEYCKFPFLFNGKEYNSCTDTGRSDGFLWCSTTYNFEKDGKYGFCPHEALFTMGGNAEGQPCKFPFRFQGTSYDSCTTEGRTDGYRWCGTTEDYDRDKKYGFCPETAMSTVGGNSEGAPCVFPFTFLGNKYESCTSAGRSDGKMWCATTANYDDDRKWGFCPDQGYSLFLVAAHEFGHAMGLEHSQDPGALMAPIYTYTKNFRLSQDDIKGIQELYGASPDIDLGTGPTPTLGPVTPEICKQDIVFDGIAQIRGEIFFFKDRFIWRTVTPRDKPMGPLLVATFWPELPEKIDAVYEAPQEEKAVFFAGNEYWIYSASTLERGYPKPLTSLGLPPDVQRVDAAFNWSKNKKTYIFAGDKFWRYNEVKKKMDPGFPKLIADAWNAIPDNLDAVVDLQGGGHSYFFKGAYYLKLENQSLKSVKFGSIKSDWLGC

In this test the target is T1, MT1-MMP sandwich EIA (solid-phase antibody 222-2D12, labeled antibody 222-1D8) (Homo sapiens, UniProt P50281).
T1 construct: 488 amino acid residues of Δ MT1-MMP (G^48 to G^53) which lacks the signal peptide and part of the propeptide region; made in house; host or cells: E. coli
Kind of test: Specificity test: cross reactivity on MT1-MMP sandwich EIA. As to conditions: concentration 1 μg/mL; blank 0.027. Type of test: binding. On the procedure: Monoclonal antibodies (e.g., 333-2D12 (IgG)) were dissolved in 0.1 M phosphate buffer, pH 7.0 to a concentration of 25 μg/mL. The monoclonal antibody solution was added to each well of a 96-well microwell (Maxisorp; Nunc-Immuno Module) at 100 μL per well and allowed to stand at 4° C. for 24 hrs. […] The solid-phase antibodies were preserved at 4° C.
Standard antigens or samples to be assayed were dispensed into a 96-well vinyl plate at 25 μL each. To each well was added a dilution buffer in aliquots of 100 μL, followed by mixing. An aliquot (100 μL) of the resultant mixture was taken out, dispensed into an antibody-solid phased plate from which a blocking solution was removed by washing. The plate was then allowed to stand at 4° C. for 16 hours.
[…] antibody 222-1D8 (Fab′-HRP) was diluted with a blocking solution to a concentration of 0.4 μg/mL. The reaction solution was removed from the antibody-solid phased plate where the primary reaction was completed. The plate was washed with a washing liquid three times and an aliquot (100 μL) of the labeled antibody solution was added to each well. The plate was allowed to stand at room temperature for 1 hour.
After completion of the reaction, the labeled antibody solution was removed. The plate was then washed with a washing liquid three times, and a TMB solution (CALBIOCHEM) was added to each well at 100 μL. The mixture was allowed to react at room temperature for 20 minute. The reaction was stopped with the addition of 2 N sulfuric acid at 100 μL per well. The reaction mixture was measured for A450 with a microplate reader (MPR-A4; Tosoh).
Each of MMP-1, -2, -3, -4, -7, -8, -9, -13, -19 and -20 was prepared to give a concentration of 1 μg/mL, and subjected to MT1-MMP sandwich EIA. A450 was measured. When MT1-MMP was subjected to sandwich EIA at 0.16 μg/mL, the absorbance was 2.206. However, when the above MMPs were subjected, their absorbances were only an extent of 0.024 to 0.071. Accordingly, it has been verified that MT1-MMP sandwich EIA is specifically reactive with MT1-MMP.
As for B1, the A450 turned out to be 0.039.
Then B2, with 0.025; and B3, with 0.071; and B4, with 0.027.
In the case of B5 it was 0.024.
